Measured values published in patent US20110256557A1, “IDENTIFYING PARATHYROID HORMONE AGONISTS AND ANTAGONISTS” (DISCOVERYBIOMED, INC., priority 2008, published 2011).

T1: PTH1R (Homo sapiens, UniProt Q03431)
T1 sequence (Q03431 27-593): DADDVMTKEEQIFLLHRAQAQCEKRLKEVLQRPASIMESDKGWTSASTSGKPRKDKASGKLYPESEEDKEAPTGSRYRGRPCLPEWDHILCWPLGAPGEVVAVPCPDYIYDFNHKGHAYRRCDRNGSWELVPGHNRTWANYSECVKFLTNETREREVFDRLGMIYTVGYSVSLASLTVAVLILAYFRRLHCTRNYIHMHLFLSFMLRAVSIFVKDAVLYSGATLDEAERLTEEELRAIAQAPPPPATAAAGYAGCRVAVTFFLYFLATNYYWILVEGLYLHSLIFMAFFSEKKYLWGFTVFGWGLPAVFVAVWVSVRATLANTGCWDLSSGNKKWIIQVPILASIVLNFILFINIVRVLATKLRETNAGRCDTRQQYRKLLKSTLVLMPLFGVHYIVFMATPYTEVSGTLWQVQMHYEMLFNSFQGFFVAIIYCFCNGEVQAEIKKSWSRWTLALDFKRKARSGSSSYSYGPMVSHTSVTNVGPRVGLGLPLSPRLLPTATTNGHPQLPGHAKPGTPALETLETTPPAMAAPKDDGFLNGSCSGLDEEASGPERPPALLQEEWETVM


Assays:
β-catenin in osteoblasts = assay: Immunohistochemistry of β-catenin in bone sections after single-dose injection, rats; type: in vivo, rat; conditions: for positive staining of β-catenin in osteoblasts: five month-old rats, single i.v. dose 40 μg/kg, 8 hours after injection
Method: For the experiments in which rats or mice were administered PTH as single-dose injection, five-month-old male Sprague Dawley rats (Charles River Laboratories; Wilmington, Mass.) or two-month-old male C57BL/J6 mice (Jackson Laboratory; Bar Harbor, Me.) (6 per group) were administered a single dose of either vehicle (1 mM acetic acid in sterile PBS) or PTH (1-34) (Bachem Inc.; Torrance, Calif.) at 40 μg/kg in a volume of 100 μl. In the mouse model, mouse recombinant Wnt3a (R&D Systems; Minneapolis, Minn.) was injected at 25 μg/kg in a volume of 100 μl. All treatments were through bolus intravenous injection via the tail vein. Rats/mice were sacrificed at 0.5, 2, 8 and 24 hours after injection.
Formalin-fixed femur or tibia tissue sections of 5 μm thickness from rats or mice were processed with antigen retrieval and hydrogen peroxide treatment prior to incubation with primary monoclonal antibody specific for β-catenin (BD Biosciences; San Jose, Calif.), goat polyclonal antibody sclerostin (R&D Systems; Minneapolis, Minn.) or rabbit polyclonal phosphorylated LRP6 (Ab1490) for 1 hour at room temperature or overnight at 4° C. Negative controls were obtained by replacing the primary antibodies with irrelevant control isotype IgG. […] In the rat model, numbers of total osteoblasts and numbers of β-catenin- or p-LRP6-positive osteoblasts were counted in three random high power fields at metaphysis subjacent to the epiphyseal growth plates or the diaphyseal hematopoietic bone marrow per specimen, and a total of six specimens in each group were used. In the mouse model, numbers of total osteoblasts and numbers of β-catenin-positive osteoblasts were counted in three random high power fields in a 2-mm square, 1 mm distal to the lowest point of the growth plate in the secondary spongiosa. Numbers of total osteocytes and numbers of sclerostin-positive osteocytes were counted in three random high power fields per trabecular bone section or cortical bone section, and a total of six specimens in each group were used.

PTH1R = target: T1, PTH1R; assay: Co-immunoprecipitation of exogenous LRP5/LRP6 constructs with PTH1R in HEK293 cells; type: cell-based; conditions: co-expressed with PTH1R in HEK293 cells
Description: PTH1R tagged with HA was subcloned into pcDNA3.1. cDNAs from human LRP5 (Mao et al., Mol. Cell. 7:801-9 (2001)) and LRP6 (Tamai et al., Nature 407:530-35 (2000)) tagged with HA and VSVG were subcloned into pCMV and pCS2^+, respectively. LRP6N+T (LRP6 N-terminal plus the transmembrane domain) and LRP6T+C (LRP6 transmembrane domain plus C-terminal) tagged with VSVG were subcloned into pCS2^+. LRP6N+1479m, LRP6N+1490m, LRP6N+1493m and LRP6N+1496m were generated by mutagenesis of either the serine (at amino acid 1490 or amino acid 1496) or threonine (at amino acid 1479 or amino acid 1493) to alanine LRP6N-IgG was generated by fusing the LRP6 extracellular domain with IgG (Tamai et al., Nature 407:530-35 (2000)). si-GFP (Wan et al., Am. J. Pathol. 166:1379-92 (2005)) and si-LRP6 plasmids were generated using a BS/U6 vector. Briefly, a 22-nucleotide oligo (oligo 1) corresponding to nucleotides 2981 to 3002 of the human LRP6 coding region was first inserted into the BS/U6 vector digested with ApaI (blunted) and HindIII. The inverted motif that contains the six-nucleotide spacer and five Ts (oligo 2) was then subcloned into the HindIII and EcoRI sites of the intermediate plasmid to generate BS/U6/LRP5/6.
(§1) Cells were harvested in cavitation buffer (5 mM HEPES, pH 7.4, 3 mM MgCl2, 1 mM EGTA, 250 mM sucrose) containing protease and phosphatase inhibitors and homogenized by nitrogen cavitation (200 p.s.i., for 5 minutes) in a cell disruption bomb (Parr Instrument Co.; Moline, Ill.). The cell homogenate was centrifuged twice at 700 g for 10 minutes to pellet the nuclei. The supernatant was further centrifuged at 100,000 g (Beckman SW50.1 rotor) for 1 hour to separate the membrane and cytosol fractions, and the resulting membrane pellet was washed three times with cavitation buffer before use in the assays (Zhang et al., Biochem. J. 343:541-9 (1999)). Immunoprecipitation and Western blot analysis of cell lysates were performed as described previously (Wan et al., Am. J. Pathol. 166:1379-92 (2005)).

[1] = system: luciferase reporter bearing TCF/LEF binding elements; assay: TCF/LEF luciferase reporter assay in UMR-106 cells; type: cell-based, rat; conditions: UMR-106 cells treated with PTH
Description: HEK293, UMR-106 and mouse embryonic fibroblast (MEF) cells were maintained in Dulbecco's Modified Eagle Medium (DMEM) with 10% Fetal Calf Serum (FCS). Mouse Wnt3a conditioned medium (Wnt3a CM) was produced from mouse L cells stably transfected with mouse Wnt3a (American Type Culture Collection; Manassas, Va.) and control conditioned medium (Control CM) was from non-transfected L cells. IgG, LRP6N-IgG, DKK1, Sclerostin, VSVG-LRP6N and Myc-Fz8CRD conditioned media were produced from HEK 293 cells transfected with the individual plasmids. Transfections were carried out using lipofectamine reagent (Invitrogen; Carlsbad, Calif.). Luciferase assays were carried out in either UMR-106 or HEK 293 cells as described previously (Wan et al., Am. J. Pathol. 166:1379-92 (2005)), with 0.3 μg of TCF-Luc reporter plasmid plus 50 ng of Renilla luciferase plasmid (internal control) per well in the 12-well plate. Experiments were repeated at least three times with triplicate for each experiment.

β-catenin = assay: Western blot of cytosolic β-catenin in HEK 293 cells; type: cell-based; conditions: for effect on PTH-elevated β-catenin level (accumulation in cytosol/cytoplasm): PTH-treated cells (FIG. 5 cells not stated; FIG. 10, 27 HEK293)
Method: as §1

| Molecule | binding of LRP6 construct to PTH1R (IP assay) (PTH1R) | effect on PTH-stimulated TCF/LEF luciferase (transcriptional) activity [1] | effect on PTH-elevated β-catenin level (accumulation in cytosol/cytoplasm) (β-catenin) | further results |
| --- | --- | --- | --- | --- |
| PTH (1-34): C-terminal-truncated synthetic analog of PTH with an anabolic effect on bone formation in humans (SVSEIQLMHNLGKHLNSMERVEWLRKKLQDVHNF; Parathyroid hormone; UniProt P01270 32-65, looked up, fragment) | – | – | – | positive staining of β-catenin in osteoblasts (β-catenin in osteoblasts; diaphyseal bone marrow): about 90.24±0.68%; positive staining of β-catenin in osteoblasts (β-catenin in osteoblasts; metaphysis subjacent to the epiphyseal growth plates): 99.08±0.57%; expression of β-catenin in preosteoblasts and osteoblasts on the bone surface (β-catenin in osteoblasts; rats, single dose, trabecular bone, within hours): induced |
| LRP6N+T: truncated LRP6 containing the extracellular and transmembrane domains, tagged with VSVG (protein, left off: small tags and cut ends, truncated LRP6 containing the extracellular and transmembrane domains, tagged with VSVG) APLLLYANRRDLRLVDATNGKENATIVVGGLEDAAAVDFVFSHGLIYWSDVSEEAIKRTEFNKTESVQNVVVSGLLSPDGLACDWLGEKLYWTDSETNRIEVSNLDGSLRKVLFWQELDQPRAIALDPSSGFMYWTDWGEVPKIERAGMDGSSRFIIINSEIYWPNGLTLDYEEQKLYWADAKLNFIHKSNLDGTNRQAVVKGSLPHPFALTLFEDILYWTDWSTHSILACNKYTGEGLREIHSDIFSPMDIHAFSQQRQPNATNPCGIDNGGCSHLCLMSPVKPFYQCACPTGVKLLENGKTCKDGATELLLLARRTDLRRISLDTPDFTDIVLQLEDIRHAIAIDYDPVEGYIYWTDDEVRAIRRSFIDGSGSQFVVTAQIAHPDGIAVDWVARNLYWTDTGTDRIEVTRLNGTMRKILISEDLEEPRAIVLDPMVGYMYWTDWGEIPKIERAALDGSDRVVLVNTSLGWPNGLALDYDEGKIYWGDAKTDKIEVMNTDGTGRRVLVEDKIPHIFGFTLLGDYVYWTDWQRRSIERVHKRSAEREVIIDQLPDLMGLKATNVHRVIGSNPCAEENGGCSHLCLYRPQGLRCACPIGFELISDMKTCIVPEAFLLFSRRADIRRISLETNNNNVAIPLTGVKEASALDFDVTDNRIYWTDISLKTISRAFMNGSALEHVVEFGLDYPEGMAVDWLGKNLYWADTGTNRIEVSKLDGQHRQVLVWKDLDSPRALALDPAEGFMYWTEWGGKPKIDRAAMDGSERTTLVPNVGRANGLTIDYAKRRLYWTDLDTNLIESSNMLGLNREVIADDLPHPFGLTQYQDYIYWTDWSRRSIERANKTSGQNRTIIQGHLDYVMDILVFHSSRQSGWNECASSNGHCSHLCLAVPVGGFVCGCPAHYSLNADNRTCSAPTTFLLFSQKSAINRMVIDEQQSPDIILPIHSLRNVRAIDYDPLDKQLYWIDSRQNMIRKAQEDGSQGFTVVVSSVPSQNLEIQPYDLSIDIYSRYIYWTCEATNVINVTRLDGRSVGVVLKGEQDRPRAVVVNPEKGYMYFTNLQERSPKIERAALDGTEREVLFFSGLSKPIALALDSRLGKLFWADSDLRRIESSDLSGANRIVLEDSNILQPVGLTVFENWLYWIDKQQQMIEKIDMTGREGRTKVQARIAQLSDIHAVKELNLQEYRQHPCAQDNGGCSHICLVKGDGTTRCSCPMHLVLLQDELSCGEPPTCSPQQFTCFTGEIDCIPVAWRCDGFTECEDHSDELNCPVCSESQFQCASGQCIDGALRCNGDANCQDKSDEKNCEVLCLIDQFRCANGQCIGKHKKCDHNVDCSDKSDELDCYPTEEPAPQATNTVGSVIGVIVTIFVSGTVYFI | associated with PTH1R as effectively as did full-length LRP6 | – | – | – |
| sclerostin: secreted protein binding to LRP6 at the extracellular domain (protein, UniProt Q9BQB4 24-213, looked up) Sclerostin: QGWQAFKNDATEIIPELGEYPEPPPELENNKTMNRAENGGRPPHHPFETKDVSEYSCRELHFTRYVTDGPCRSAKPVTELVCSGQCGPARLLPNAIGRGKWWRPSGPDFRCIPDRYRAQRVQLLCPGGEAPRARKVRLVASCKCKRLTRFHNQSELKDFGTEAARPQKGRKPRPRARSAKANQAELENAY | – | disrupted | disrupted | – |
| DKK1: secreted protein binding to LRP6 at the extracellular domain (protein, UniProt O94907 32-266, looked up) Dickkopf-related protein 1: TLNSVLNSNAIKNLPPPLGGAAGHPGSAVSAAPGILYPGGNKYQTIDNYQPYPCAEDEECGTDEYCASPTRGGDAGVQICLACRKRRKRCMRHAMCCPGNYCKNGICVSSDQNHFRGEIEETITESFGNDHSTLDGYSRRTTLSSKMYHTKGQEGSVCLRSSDCASGLCCARHFWSKICKPVLKEGQVCTKHRRKGSHGLEIFQRCYCGEGLSCRIQKDHHQASNSSRLHTCQRH | – | disrupted | disrupted | effect on Wnt3a-elevated β-catenin level (β-catenin; Wnt3a-treated cells (FIG. 5 cells not stated; FIG. 27 HEK293)): reduced |
| LRP6T+C: truncated LRP6 containing the transmembrane and intracellular domains, tagged with VSVG (protein, left off: small tags and cut ends, truncated LRP6 containing the transmembrane and intracellular domains, tagged with VSVG) TNTVGSVIGVIVTIFVSGTVYFICQRMLCPRMKGDGETMTNDYVVHGPASVPLGYVPHPSSLSGSLPGMSRGKSMISSLSIMGGSSGPPYDRAHVTGASSSSSSSTKGTYFPAILNPPPSPATERSHYTMEFGYSSNSPSTHRSYSYRPYSYRHFAPPTTPCSTDVCDSDYAPSRRMTSVATAKGYTSDLNYDSEPVPPPPTPRSQYLSAEENYESCPPSPYTERSYSHHLYPPPPSPCTDSS | could barely be detected | – | – | – |
